# Assay results: article PMC4991664
# Target: Atad2-tag (endogenous mouse Atad2 with a C-terminal 6xHis-Flag-Ha TAP tag, knock-in) (mouse (endogenous in 46C ES cells)) (UniProt Q8CDM1)
# Experiment: co-IP; anti-Flag immunoprecipitation of protein extracts of 46C^tag and parental 46C ES cells; western blot with anti-H4 and anti-acetylated H4, compared with dilutions of the input
# Chain of UniProt Q8CDM1 (Q8CDM1 whole entry): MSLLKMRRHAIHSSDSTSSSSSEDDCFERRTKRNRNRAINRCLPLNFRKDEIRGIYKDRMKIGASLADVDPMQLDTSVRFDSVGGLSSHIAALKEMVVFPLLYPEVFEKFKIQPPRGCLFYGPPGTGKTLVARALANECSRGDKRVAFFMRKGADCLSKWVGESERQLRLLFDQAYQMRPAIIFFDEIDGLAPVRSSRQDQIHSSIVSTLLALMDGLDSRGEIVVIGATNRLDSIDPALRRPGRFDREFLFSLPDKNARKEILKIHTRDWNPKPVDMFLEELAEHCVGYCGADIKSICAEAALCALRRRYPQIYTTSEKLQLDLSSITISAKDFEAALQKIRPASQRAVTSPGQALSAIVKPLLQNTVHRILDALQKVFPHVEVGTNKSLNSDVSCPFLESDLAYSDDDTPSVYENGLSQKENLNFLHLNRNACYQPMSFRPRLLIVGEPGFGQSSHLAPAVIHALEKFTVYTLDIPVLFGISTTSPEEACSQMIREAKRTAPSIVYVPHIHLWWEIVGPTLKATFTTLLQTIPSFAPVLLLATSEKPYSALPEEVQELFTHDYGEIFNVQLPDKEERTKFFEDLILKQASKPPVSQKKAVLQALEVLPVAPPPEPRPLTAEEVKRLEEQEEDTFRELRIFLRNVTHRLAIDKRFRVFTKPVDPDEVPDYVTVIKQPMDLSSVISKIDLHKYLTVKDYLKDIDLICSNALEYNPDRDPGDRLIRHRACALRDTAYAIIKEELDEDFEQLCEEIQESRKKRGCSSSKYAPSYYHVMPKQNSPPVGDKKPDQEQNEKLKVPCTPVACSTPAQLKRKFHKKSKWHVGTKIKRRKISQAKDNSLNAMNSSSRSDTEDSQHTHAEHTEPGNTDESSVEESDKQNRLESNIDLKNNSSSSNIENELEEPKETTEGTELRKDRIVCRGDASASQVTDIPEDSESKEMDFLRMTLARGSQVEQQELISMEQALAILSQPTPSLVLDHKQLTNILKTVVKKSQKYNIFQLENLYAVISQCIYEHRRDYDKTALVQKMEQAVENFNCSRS
row,fraction of the input immunoprecipitated (fraction of the input),Substance
1,0.02,acetylated histone H4 (from UniProt P62806 1-103) (natural protein)
2,0.01,histone H4 (from UniProt P62806 1-103) (natural protein)
